From publication PMC9638937, “Structural and functional determinants of the archaeal 8-oxoguanine-DNA glycosylase AGOG for DNA damage recognition and processing” come the findings set out here.

The target in one series is T1, Pab-AGOG WT (Pyrococcus abyssi, UniProt Q9UZY0 1-239).
T1 sequence: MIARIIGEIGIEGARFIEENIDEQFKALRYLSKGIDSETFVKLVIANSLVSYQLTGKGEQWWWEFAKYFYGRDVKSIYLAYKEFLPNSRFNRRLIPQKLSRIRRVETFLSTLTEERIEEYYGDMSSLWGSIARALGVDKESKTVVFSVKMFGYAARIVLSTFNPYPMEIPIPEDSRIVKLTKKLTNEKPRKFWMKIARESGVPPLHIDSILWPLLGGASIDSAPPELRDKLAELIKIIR
Nature of the series: X-ray structure; NaBH4-trapped covalent at K142; EMSA: 0.1 nM 32P-DNA, 20 mM HEPES/NaOH pH 7.6, 100 mM NaCl, 10% glycerol, 0.1% BSA, 30 min at 4 C; 10% native PAGE at 4 C. The conditions noted are these: protein: recombinant; tags: N-terminal 6xHis (pET28a), removed by trypsin at thrombin site.

The target of another series is T2, Pab-AGOG K142Q (Pyrococcus abyssi, UniProt Q9UZY0 1-239, K142Q).
T2 sequence: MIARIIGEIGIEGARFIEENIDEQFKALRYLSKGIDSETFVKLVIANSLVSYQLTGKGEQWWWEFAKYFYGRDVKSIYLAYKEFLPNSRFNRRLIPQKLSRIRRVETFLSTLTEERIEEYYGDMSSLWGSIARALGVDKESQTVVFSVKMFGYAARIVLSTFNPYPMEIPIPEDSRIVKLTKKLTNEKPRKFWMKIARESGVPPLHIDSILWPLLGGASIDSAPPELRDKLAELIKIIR
In words: X-ray structure; non-covalent, 1.25 A; EMSA: 0.1 nM 32P-DNA, 20 mM HEPES/NaOH pH 7.6, 100 mM NaCl, 10% glycerol, 0.1% BSA, 30 min at 4 C; 10% native PAGE at 4 C. The conditions noted are these: protein: recombinant; tags: N-terminal 6xHis (pET28a), removed by trypsin (as for WT).

B1: 9-mer trapped AP strand with 9-mer A (dsDNA)
DNA 1: TTTGTTTCT
DNA 2: AGAAAAAAA
modifications: ring-open AP site from GO, borohydride-trapped, opposite A
As to B1, the binding result with Pab-AGOG WT is recorded as “binds”.

B2: 9-mer trapped AP strand with 9-mer T (dsDNA)
DNA 1: TTTGTTTCT
DNA 2: AGAAATAAA
modifications: ring-open AP site from GO, borohydride-trapped, opposite T
Turning to B2, the binding result with Pab-AGOG WT is reported as “binds”.

B3: 9-mer GO:C duplex (dsDNA)
DNA 1: TTTGTTTCT
DNA 2: AGAAACAAA
modifications: 8-oxoguanine at position 4 (opposite C6*)
For B3, in the series with Pab-AGOG K142Q, the binding result is recorded as “binds”.
